Assay results from a protein production outcome set (Wang et al. 2014).

Assay: label from the status in PepcDB records
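Note: failed if final PepcDB status was selected cloned or expressed and not failed if soluble or beyond.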

Sequence	protein production
MYTITDIAPTDAEFIALIAALDAWQETLYPAESNHLLDLSQLPPQTVIALAIRSPQGEAVGCGAIVLSEEGFGEMKRVYIDPQHRGQQLGEKLLAALEAKARQRDCHTLRLETGIHQHAAIALYTRNGYQTRCAFAPYQPDPLSVFMEKPLFADLRSAAL	not failed
MITVVGGTFSKLHKGHKALLNTAIDTGNEVVIGLTSDEYVKKNKVYPAIPYSVRYRTLYNYMIKRTNKFRIRQIDDRNGNAPYEKDYEVIVVSPETYPRSLKINEIRISNGLPPLKIIRVPYVLAQDLFPISSTRIINGEID	not failed
MSYNVAILMSTYNGMDYLREQIESIRSQTYKQWNLYIRDDGSSDNTIDLIKTFVHQDTRIHFINADKQVNRGVKRSFLNLLSSVKADFYMFCDQDDYWLPNKVKLTLDAMISDYHNKPRLVFTNMNLVDSNLKVLDKASLSAVNISYWTSKDQLMFDNIVTGCTVMINNQLKQYVFPISAKKIVMHDWYIAQLASQLGDIQYVTDPTILYRQHESNQVGVNKSLFGKVKKLARFNDFQTGVILQISQGRLTQKKSQVVFSKTTQAFLNWNFTCPLILKVLPIIQNNFKKHTWPGTIALNLALLRRKKS	failed
MKVEEILEKALELVIPDEEEVRKGREAEEELRRRLDELGVEYVFVGSYARNTWLKGSLEIDVFLLFPEEFSKEELRERGLEIGKAVLDSYEIRYAEHPYVHGVVKGVEVDVVPCYKLKEPKNIKSAVDRTPFHHKWLEGRIKGKENEVRLLKGFLKANGIYGAEYKVRGFSGYLCELLIVFYGSFLETVKNARRWTRRTVIDVAKGEVRKGEEFFVVDPVDEKRNVAANLSLDNLARFVHLCREFMEAPSLGFFKPKHPLEIEPERLRKIVEERGTAVFAVKFRKPDIVDDNLYPQLERASRKIFEFLERENFMPLRSAFKASEEFCYLLFECQIKEISRVFRRMGPQFEDERNVKKFLSRNRAFRPFIENGRWWAFEMRKFTTPEEGVRSYASTHWHTLGKNVGESIREYFEIISGEKLFKEPVTAELCEMMGVKD	not failed
MTRSKKFIIMITTVIVIIAFIFLALFAWKIYAERNYNNTNIREAAQFNPLIRETDYYVQVSDPLKKNGKNQVGAYTYMTDGFDKDGVGHTVTFNGMKKLKKGAYLKVSLFLGEAKSYNEISKDKVPHKPLKKLEMQQLEHHHHHH	not failed
SSAEAGGGIRKRHRTKFTAEQKERMLALAERIGWRIQRQDDEVIQRFCQETGVPRQVLKVWLHNNKH	not failed
MIDVKSIILIVLDGLGDRPGEILGYRTPLQAAYHPNMNRMASLGMTGLMHPISPGIRSGSDTSHMSLLGYDPRVYYQGRGPFEALGLHMDMKPGDLAFRANFATNRDGKIIDRRAGRINAGNDQLASAISIDIGNYKFRVKSGVEHRAALVVSGPNLSDKISDSDPHSEGKPPEPIRPLDPSADSTAKIMNEYLKRIREILRDHPVNVEREKNGQIPGNELLIRSAGKVPDIPSFQEKNGITGACVVGSPWLKGLCRLLGMAVIDVPGAAGTINSNYTGKIKTAIDASKRYDFVLVNIKATDVAGHDGDYELKRRVIEDIDIAMEPLLGQSDRIVVAITGDHSTPCSVKDHSGDPVPIVFYTDGIYSDDVKLFDEVSAMKGALRITTQDVLNILMEMAGRAEKFGS	not failed
MVRIRWFFIRHAESEANVVERWRIAGRSEAARLTERGERQARVVGEAVAIRLEQVLRVDGGDAGGVSGDAGRRRVLAPVAFTSPLLRARQTAALVLEQVAQPVKLEPVDDLAEVYQGLWEDALRSEVHTPETLQAMARNPYEFRAPGGEAQADVERRVLRAVSRMSQRVLSLLSLELEENEQTDVIVLVFTHGYVCKCLIRSVLDASPHLTGQIQVDNGALVELWLEPAAQQGALTSAAELGMWTVLRINDTWGQLTASMR	failed
NYLRDQVVMVGYGEVGRRITKTLMQQEIKVVIAEENREIVEDLRKKGIAAVSGEATEPSVLIQAHIMHARMLILSPMDILDIHRIVDIAKQLNPQIEVLCCAENKEEAEIIRQDEIGLVFYAKEEMAKNMSHHILGQIERAHHLSLGH	failed
SDSPEQESADDALKRIVDGFQHFRREVFPEQQALFKKLANSQRPRAMFITCADSRIVPELITQSSPGDLFVTRNVGNVVPPYGQMNGGVSTAIEYAVLALGVHHIIVCGHSDCGAMRAVLDPQTLERMPTVKAWLRHAEVARTVVADNCDCGASHDTLGVLTEENVVAQLDHLRTHPSVASRLASGQLFIHGWVYDIESAQIRAYDAKQGRFLPLDGEHPVPMATPAPRYLSS	failed
MENAPLLFQLPDDDTLYQALLARDPAYEGFAFVGVKSTGVFCRLTCAARKPKRENTVFFGSIKGCVEAGFRACLRCRPLERAGVQEPWVQTLLEQLGRDPERRWYEDDLVAQGLDPSTVRRAFKRYFGVTFLEMARLRRMGQGMQQLASGEPVIEAQISAGFDSDSGFRHAFSRLAGQPPSNLRGRELLKVDWLQTPIGVMLAVADAQVLHLLEFFDRPALANELQNLQKSSGSSIGFGRFAPIDQIEAELQRYFAGEAVHFATPLAMSASPFTRTVWQALRAIPLGTTCSYAEVARQVGSPSAVRAVARANAANQISIVIACHRVIGADGSLTGYGGGLWRKRWLLEHERRLHHLQGASASGL	failed
MQHHKVAIIGAGAAGIGMAITLKDFGITDVIILEKGTVGHSFKHWPKSTRTITPSFTSNGFGMPDMNAISMDTSPAFTFNEEHISGETYAEYLQVVANHYELNIFENTVVTNISADDAYYTIATTTETYHADYIFVATGDYNFPKKPFKYGIHYSEIEDFDNFNKGQYVVIGGNESGFDAAYQLAKNGSDIALYTSTTGLNDPDADPSVRLSPYTRQRLGNVIKQGARIEMNVHYTVKDIDFNNGQYHISFDSGQSVHTPHEPILATGFDATKNPIVQQLFVTTNQDIKLTTHDESTRYPNIFMIGATVENDNAKLCYIYKFRARFAVLAHLLTQREGLPAKQEVIENYQKNQMYLDDYSCCEVSCTC	not failed
EPVLCSRTTCRAVLNPLCQVDYRAKLWACNFCYQRNQFPPSYAGISELNQPA	not failed
MSILMLFGLATLRSATYGENEQLFTRQIVWDIAGFSLMFLVLFIKDRTIRNFSIILYVFSVVLLAALLVKGTPIGGSKRWFRVMGFSFQPSDFAKLSLIVLLPYLLEKRWFWRSFFLTVVPAVLIFLEPDLGTTLSVGLIWLFAVLASNVNKKPLVILLILVLVFLPVFFFFGLKDYQRARILSFLNPEEYGESYSYNVLQSIHAIGAGGLFGAGYMKGKANLMGYVPVSYTDFIVSVIGEEFGFIGIVFLLSLFGLLFFEVSRWILNVKDEYWEILMVSACGLIWFHVFENVSMNLGLLPVTGVPLPFISYGGTSTLVFSILVGLILKGIALARVEKKL	failed
MEETPKTTLPHKFLKNILMLDVLKVRIYPNKEQEISLAKSFGCSRFVWNFYLNKTNTQYEETGKGMTYCQMAKDLTQLKKLSDYEWLQEPTAAVLQQSLKNLESAFKNFFSKRAGFPKFKSKHSKQSIRFPESCSIKDSGLKLPKLGIVKVSLSKKINSKIKSVTVSKTSTGKYFAALLFEAKDLTNNKQGKISGIDLGLTSLITVFDGETCYKVDPIKPTRKYAKRLRIRQKALSRKVKGSNNRRKAIKVVAKVHEKISNTRQDFLHKLSRKLVDDNQIIVAENLCVKGLARTKLAKSIHDAGFGMLLNFISYKLEREGGKFVQVDRFFPSSKLCSCCGHKNNLLNLSIREWICPSCQTTHDRDENASRNLRTEGIRILETNTAGHAEIQACGETVRLVGTCAKKRVSEKQESPATLLCG	failed
VILSATRPFVCSRAPLGLSESAFMPLNGRTKMITKMPFRLVSLSCLELHRASSFWDIGFCTGSVSIEAKLNFPHLHITAFEIRPEGAELMPVNSRRFGAPGIAYRIGDFMEEDISSLAPPDAVFIGGHGGRLVEMIAKVHSVMTKGGLLVFNSVSEESRHLFLTGIEACGMELLSSIRLTADGNNPIDILQARKKE	failed
MSELPPREQPPRDQAISVAAISPERPDNHENDWTRRLVLFLRVMAVLSVAKGLYHWAQITGFVGGEDDAFEVQTMAWQTATIYFAVIELVAAVGLWLATPWGAVVWLTTVVSMAVIELMFPAIYGGSLLVVLGEALLLAAYLALAWMAARERPP	failed
MTNNLKQRRIILDLAVTLDGFIEGKNGEVDWCIMDPDMGFTDFLNQIDTILYGRKSFDLWGQYIPKNEDPDTEKELWKLVHSKKKYVFSRTQNEIDNQAIFINDNILEEVNKLKKNPGKDIWLYGGASLITTFINLGLVDEFRLSIHPVVLGEGKPLFIDVKQRINLKMVNTRTFSSGVVQIVYHWNG	not failed
DYPIMIICPGGGFTYHSGREEAPIATRMMAAGMHTVVLNYQLIVGDQSVYPWALQQLGATIDWITTQASAHHVDCQRIILAGFSAGGHVVATYNGVATQPELRTRYHLDHYQGQHAAIILGYPVIDLTAGFPTTSAARNQITTDARLWAAQRLVTPASKPAFVWQTATDESVPPINSLKYVQAMLQHQVATAYHLFGSGIHGLALANHVTQKPGKDKYLNDQAAIWPQLALRWLQE	failed
MDVLSLVGIILAFVAIVGGNFLEGGHAGALLNGPAALIVIGGTLAAALLQTPVNVLKRGLGMLGWVFFPPREDLSGGIDRIVSWSMTARKEGLLGLESIADAEPDPYARKGLQLLVDGAEPEVIRSILEVDLFTQESRDLQAAKVFESMGGYAPTIGIIGAVMGLIHVMGNLANPAQLGSGIAVAFVATIYGVGFANLLLLPIGNKLKTLVLRQSRYREMLLEGLLSIAEGENPRSIELKLQGFMD	failed
MQRQNKQQEDSFMIPETSYDIVVVGAGPAGSTAALYAAKKGASVLLLDKKREIGSPIQCAGFLPDASEVKALLPEADLPGALKNYPDSCVLQPIRTQRIIPPNCNAKEFAVKGAVLDRRRYDQYLAEQAAEAGAELMVKTRVTKIQGTTVETSGIFGKHTIRAKAIIGADGPNSLVAKSRGLIMKPEARETSVAIEYQVRNVDIDPDALEMYFGKDYVPGGYAWVFPEGKDRANVGIGIRSCMAEKGVSAKEYLHRFIKKHPVAGPKLKNAVIMNVIAGIIPVNGAPANTATADSLVVGDAAGHIIATNGGGIPPAMIAGKIAGETAAEFAAGKCDLEEYDRRWRAQFGQALETSVQARQIMDGIMKSDALMNAAFRFISPEQMKVMQCGKLPGPVKLGLQALSRGKK	failed
MLPLLVGTGVLVFLLLFGDSLLQDSDSYWQIETGRWILAHGTVPTVDSFSFSKAGEPWQSSSWLAQLIFALAMQAGWAGPVIVTALAVAAALAMFTAYLERYASALVTAALALAAMVLIMPHVLARPHMLALPVMVAWFIGLIDAADRKAAPPWALLLVMALWANLHGGFVFGLMLIGPLGLEALRQAEPQRRLSLALRWAAFGIAAVAACCATPYGWGTLLAATKILSLGEVLSTLGEWASSDFSKFGTFEASLLALLGIALARGLTLPWPRLLLVLGLVHMALVHVRSIEHYALLVPMIAARPWALQLGLARKSAEAKPDLAPPAWAGVVAVIAIIAATIAAAPRLHYRFDEPQVPERALAAVQAHGAKRIFNAYIFGGYLISRHVPVFIDGRAELYGEARVMDMMRATAGRDPAALDRMLTGNDIDATMLPPSAAAVRQMDERPGWRRLYADDIAVVHVRD	failed
